This note sets out measurements from patent US20200199244A1 (published 2020).

“And” between values parts separate entries of the source, which are not always exact repeats. Identical values can stand only once.

The target of test [1] is T1, wild type cynomolgus monkey CD40 Fc fusion (cynomolgus monkey; human).
T1 construct: also called wt-cyno-CD40; wt-cCD40; not shown: human IgG1 Fc
T1 chain: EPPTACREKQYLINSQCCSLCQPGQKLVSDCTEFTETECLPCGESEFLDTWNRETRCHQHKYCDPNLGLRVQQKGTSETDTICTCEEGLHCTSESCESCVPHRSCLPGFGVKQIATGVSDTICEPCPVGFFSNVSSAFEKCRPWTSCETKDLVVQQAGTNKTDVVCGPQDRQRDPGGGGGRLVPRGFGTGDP
The test is described as follows: SPR ProteOn XPR36.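 Note: surface plasmon resonance with CD40-Fc fusions captured through their Fc on an anti-human IgG chip, sensorgrams reference-subtracted against surfaces lacking CD40-Fc.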

For test [2], the target named is T2, human CD40 (W109R) Fc fusion (Chimpanzee CD40) (human, UniProt P25942 21-193).
T2 construct: As m1 with W109R (residue of chimpanzee CD40); also called hCD40-M3; not shown: human IgG1 Fc
In words: SPR ProteOn XPR36.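 Note: surface plasmon resonance with CD40-Fc fusions captured through their Fc on an anti-human IgG chip, sensorgrams reference-subtracted against surfaces lacking CD40-Fc.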

The target in test [3] is T3, human CD40 (H76R, W109L, L121P) Fc fusion (human).
T3 construct: As m1 with H76R, W109L and L121P; also called hCD40-M5; not shown: human IgG1 Fc
T3 chain: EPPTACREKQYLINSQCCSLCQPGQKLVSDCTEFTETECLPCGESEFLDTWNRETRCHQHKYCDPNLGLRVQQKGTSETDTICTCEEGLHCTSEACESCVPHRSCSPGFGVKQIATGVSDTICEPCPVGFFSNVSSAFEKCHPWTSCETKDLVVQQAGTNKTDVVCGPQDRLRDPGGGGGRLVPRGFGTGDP
The test is described as follows: SPR ProteOn XPR36.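 Note: surface plasmon resonance with CD40-Fc fusions captured through their Fc on an anti-human IgG chip, sensorgrams reference-subtracted against surfaces lacking CD40-Fc.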

Test [4] concerns the target T4, human CD40 (W109L, L121P) Fc fusion (human, UniProt P25942 21-193).
T4 construct: As m1 with W109L and L121P; also called hCD40-M4; not shown: human IgG1 Fc
In words: SPR ProteOn XPR36.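 Note: surface plasmon resonance with CD40-Fc fusions captured through their Fc on an anti-human IgG chip, sensorgrams reference-subtracted against surfaces lacking CD40-Fc.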

Test [5] addresses T5, human CD40 (H76R) Fc fusion (human, UniProt P25942 21-193).
T5 construct: As m1 with H76R; also called hCD40-M1; not shown: human IgG1 Fc
The test is described as follows: SPR ProteOn XPR36, CD40-Fc captured, dAb analyte.

The target of test [6] is T6, wild type human CD40 Fc fusion (human, UniProt P25942 21-193).
T6 construct: also called wt-hCD40; not shown: human IgG1 Fc
In words: SPR ProteOn XPR36, CD40-Fc captured, dAb analyte.

Test [7] concerns the target T7, human CD40 (H76R, W109L, L121P) Fc fusion (human).
T7 construct: Same construct as wt-hCD40 with H76R, W109L and L121P; also called hCD40-M5; hCD40-M5 (H76R, W109L, L121P); not shown: human IgG1 Fc
T7 chain: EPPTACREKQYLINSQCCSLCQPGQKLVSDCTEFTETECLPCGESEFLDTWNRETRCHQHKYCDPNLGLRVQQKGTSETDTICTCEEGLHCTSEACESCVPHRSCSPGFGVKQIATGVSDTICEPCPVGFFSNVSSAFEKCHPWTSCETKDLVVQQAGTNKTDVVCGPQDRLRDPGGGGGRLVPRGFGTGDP
The test is described as follows: SPR, ProteOn XPR36; CD40-Fc captured, dAb analyte. Background: Surface plasmon resonance follows binding to a sensor surface in real time, without labels.

Test [8] concerns the target T8, human CD40 (W109L, L121P) Fc fusion (human, UniProt P25942 21-193).
T8 construct: Same construct as wt-hCD40 with W109L and L121P; also called hCD40-M4; hCD40 M4 (W109L, L121P); not shown: human IgG1 Fc
The test is described as follows: SPR, ProteOn XPR36; CD40-Fc captured, dAb analyte.

In test [9] the target is T9, wild type cynomolgus monkey CD40 Fc fusion (cynomolgus monkey (Macaca …)).
T9 construct: also called wt-cCD40; wt-cyno-CD40; not shown: human IgG1 Fc
T9 chain: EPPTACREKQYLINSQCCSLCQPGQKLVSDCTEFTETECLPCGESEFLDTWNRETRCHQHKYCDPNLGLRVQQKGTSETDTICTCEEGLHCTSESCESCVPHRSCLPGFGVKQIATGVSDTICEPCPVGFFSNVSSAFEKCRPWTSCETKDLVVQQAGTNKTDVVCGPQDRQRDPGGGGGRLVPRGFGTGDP
The test is described as follows: SPR, ProteOn XPR36; CD40-Fc captured, dAb analyte.

For test [10], the target named is T10, human CD40 (W109R) Fc fusion (Chimpanzee CD40) (human, UniProt P25942 21-193).
T10 construct: Same construct as wt-hCD40 with W109R (the residue of chimpanzee CD40); also called hCD40-M3; hCD40 M3 (W109R); not shown: human IgG1 Fc
In words: SPR, ProteOn XPR36; CD40-Fc captured, dAb analyte.

The target of test [11] is T11, wild type human CD40 Fc fusion (human, UniProt P25942 21-193).
T11 construct: also called wt-hCD40; not shown: human IgG1 Fc
In words: SPR, ProteOn XPR36; CD40-Fc captured, dAb analyte; 1:1 fit.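 Note: CD40-Fc captured on anti-human IgG(Fc) surface of a GLC chip, buffer pH 7.1, sensorgrams double-referenced against surfaces without CD40-Fc.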

Test [12] concerns the target T12, human CD40 (H76R) Fc fusion (human, UniProt P25942 21-193).
T12 construct: also called hCD40-M1; hCD40 M1 (H76R); not shown: human IgG1 Fc
The description is as above.

For test [13], the target named is T11, wild type human CD40 Fc fusion. In words: SPR, ProteOn XPR36; CD40-Fc captured, dAb analyte; 1:1 fit; repeat.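 Note: CD40-Fc captured on anti-human IgG(Fc) surface of a GLC chip, buffer pH 7.1, sensorgrams double-referenced against surfaces without CD40-Fc.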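 Note: CD40-Fc held on a GLC chip by an immobilized anti-human IgG(Fc) antibody, sensorgrams double-referenced against CD40-free surfaces, running buffer sodium phosphate with NaCl and Tween 20 at pH 7.1.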

B1: BMS3h-37-2 (other)
VH: EVQLLESGGGLVQPGGSLRLSCAASGFTFEWYEMQWVRRAPGKGLEWVSAISGDGYRTYYADSVKGRFTISRDNSKNTLYLQMNSLRAEDTAVYYCAKELGYFDYWGRGTLVTVSS
notes: domain antibody (dAb), single VH domain
A word on the Kd: it is a measure of binding affinity in units of concentration. As to B1, the binding result in [1], in test [2], in test [3] and in test [4] was “no binding (tested: 405 nM)” throughout. Also, the dissociation constant Kd in [5] came out at 2.6 nM; in test [6], 2 nM.

B2: BMS3h-37-2 (other)
VH: EVQLLESGGGLVQPGGSLRLSCAASGFTFEWYEMQWVRRAPGKGLEWVSAISGDGYRTYYADSVKGRFTISRDNSKNTLYLQMNSLRAEDTAVYYCAKELGYFDYWGRGTLVTVSS
notes: Anti-human CD40 domain antibody (dAb), single VH domain
A word on the koff: it is the first-order rate constant of dissociation. What is called kon is the second-order rate constant of association. Take B2: the binding result in [7], in test [8], in test [9] and in test [10] was “no binding (tested: dAb tested up to 405 nM)” throughout. In addition, the values for the Kd in test [11], in test [12] and in test [13] were 1.96 nM, 2.58 nM and 2 nM, respectively. For the same molecule, the koff in test [11] was found to be 0.000417 s⁻¹; in test [12] it was 0.000562 s⁻¹; in [13], 0.000426 s⁻¹. The kon was 212000 M⁻¹ s⁻¹ in test [11], 217000 M⁻¹ s⁻¹ in test [12] and 213000 M⁻¹ s⁻¹ in test [13].

B3: BMS3h-37-11 (other)
VH: EVQLLESGGGLVQPGGSLRLSCAASGFTFEWYEMQWVRKAPGKGLEWVSAISGDGYRTYYADSVKGRFTISRDNSKNTLYLQMNSLRAEDTAVYYCAKELGYFDYRGRGTLVTVSS
notes: as for B2
For B3, the binding result in test [7], in test [8], in [9] and in test [10] was “no binding (tested: dAb tested up to 405 nM)” each time. Further, the dissociation constant Kd in test [11] worked out at 1.92 nM; in test [12] it was 2.39 nM; in [13], 2.28 nM. The koff in test [11] was 0.00056 s⁻¹; in test [12] it was 0.000717 s⁻¹; in [13] it was 0.00064 s⁻¹. Besides, the kon in [11] worked out at 291000 M⁻¹ s⁻¹; in test [12], 300000 M⁻¹ s⁻¹; in test [13], 281000 M⁻¹ s⁻¹.

B4: BMS3h-37-11 (other)
VH: EVQLLESGGGLVQPGGSLRLSCAASGFTFEWYEMQWVRKAPGKGLEWVSAISGDGYRTYYADSVKGRFTISRDNSKNTLYLQMNSLRAEDTAVYYCAKELGYFDYRGRGTLVTVSS
notes: as for B1
On to B4, for which the binding result in test [1], in test [2], in test [3] and in test [4] was “no binding (tested: 405 nM)” each time. The Kd in test [5] was 2.4 nM; in test [6], 1.9 nM and 2.3 nM.

B5: BMS3h-38-211 (other)
VH: EVQLLASGGGLVQPGGSLRLSCAASGFTFEEEEMIWVRQAPGKGLEWVSAISRQGGSTYYADSVKGRFTISRDNSKNTLYLQMNSLRAEDTAVYYCGKEPFRYDYWGQGTLVTVSS
notes: as for B1
On to B5, for which the binding result in test [1], in [2], in test [3] and in test [4] was “no binding (tested: 405 nM)” each time. For the same molecule, the Kd in test [5] is 4 nM; in test [6] it was 3.3 nM and 6.1 nM.

B6: BMS3h-38-211 (other)
VH: EVQLLASGGGLVQPGGSLRLSCAASGFTFEEEEMIWVRQAPGKGLEWVSAISRQGGSTYYADSVKGRFTISRDNSKNTLYLQMNSLRAEDTAVYYCGKEPFRYDYWGQGTLVTVSS
notes: as for B2
Regarding B6, the binding result in [7], in test [8], in test [9] and in [10] was “no binding (tested: dAb tested up to 405 nM)” throughout. The Kd in test [11] came to 3.26 nM; in test [12], 3.98 nM; in test [13], 6.08 nM. The koff amounted to 0.000362 s⁻¹ in test [11], 0.00051 s⁻¹ in test [12] and 0.000728 s⁻¹ in test [13]. For the same molecule, the results for the kon in [11], in [12] and in test [13] were 111000 M⁻¹ s⁻¹, 128000 M⁻¹ s⁻¹ and 120000 M⁻¹ s⁻¹, respectively.

B7: BMS3h-38-215 (other)
VH: EVQLLASGGGLVQPGGSLRLSCAASGFTFEEEEMIWVRQAPGKGLEWVSAISGLGWSTYYADSVKGRFTISRDNSKNTLYLQMNSLRAEDTAVYYCGKEPFRYDYWGQGTLVTVSS
notes: as for B2
In the case of B7, the binding result in test [7], in test [8], in [9] and in test [10] was “no binding (tested: dAb tested up to 405 nM)” each time. In addition, the equilibrium dissociation constant (Kd) in [11] was found to be 2.1 nM; in [12] it was 3.03 nM; in [13] it was 6.02 nM. For the same molecule, the off-rate (koff) in [11] turned out to be 0.000288 s⁻¹; in test [12] it was 0.00053 s⁻¹; in test [13], 0.00082 s⁻¹. The on-rate (kon) in test [11] was 137000 M⁻¹ s⁻¹; in [12], 175000 M⁻¹ s⁻¹; in test [13] it was 136000 M⁻¹ s⁻¹.

B8: BMS3h-38-215 (other)
VH: EVQLLASGGGLVQPGGSLRLSCAASGFTFEEEEMIWVRQAPGKGLEWVSAISGLGWSTYYADSVKGRFTISRDNSKNTLYLQMNSLRAEDTAVYYCGKEPFRYDYWGQGTLVTVSS
notes: as for B1
For B8, the binding result in test [1], in test [2], in test [3] and in [4] was “no binding (tested: 405 nM)” throughout. The Kd was 3 nM in test [5]; 2.1 nM and 6 nM in test [6].

B9: BMS3h-38-217 (other)
VH: EVQLLASGGGLVQPGGSLRLSCAASGFTFEEEEMIWVRQAPGKGLEWVSAISRRGYSTYYADSVKGRFTISRDNSKNTLYLQMNSLRAEDTAVYYCGKEPFRYDYWGQGTLVTVSS
notes: as for B1
Consider B9, for which the binding result in test [1], in test [2], in [3] and in test [4] was “no binding (tested: 405 nM)” in each case. For the same molecule, the dissociation constant (Kd) was 3.4 nM in test [5]; 2.3 nM and 2.4 nM in test [6].
